{"source": "patent US20230107890A1", "about": "(HOBER BIOTECH, published 2023)", "binders": {"B1": {"name": "MG-DEAVDANS-ADAPT6-(SSSG)5-ABD35-GSSC (designed binder)", "chain": "MGDEAVDANSLAAAKETALYHLDRLGVADAYKDLIDKAKTVEGVKARYFEILHALPSSSGSSSGSSSGSSSGSSSGLAEAKVLANRELDKYGVSDFYKRLINKAKTVEGVEALKLHILAALPGSSC", "notes": "also called ADAPT6-(SSSG)5-ABD035"}, "B2": {"name": "MG-DEAVDANS-ADAPT6-(SSSG)3-ABD035-GSSC (designed binder)", "chain": "MGDEAVDANSLAAAKETALYHLDRLGVADAYKDLIDKAKTVEGVKARYFEILHALPSSSGSSSGSSSGLAEAKVLANRELDKYGVSDFYKRLINKAKTVEGVEALKLHILAALPGSSC"}, "B3": {"name": "MG-DEAVDANS-ABD35-(SSSG)5-ADAPT6-GSSC (designed binder)", "chain": "MGDEAVDANSLAEAKVLANRELDKYGVSDFYKRLINKAKTVEGVEALKLHILAALPSSSGSSSGSSSGSSSGSSSGLAAAKETALYHLDRLGVADAYKDLIDKAKTVEGVKARYFEILHALPGSSC", "notes": "also called ABD035-(SSSG)5-ADAPT6"}, "B4": {"name": "MG-DEAVDANS-ABD035-(SSSG)3-ADAPT6-GSSC (designed binder)", "chain": "MGDEAVDANSLAEAKVLANRELDKYGVSDFYKRLINKAKTVEGVEALKLHILAALPSSSGSSSGSSSGLAAAKETALYHLDRLGVADAYKDLIDKAKTVEGVKARYFEILHALPGSSC", "notes": "also called ABD035-ADAPT6"}, "B5": {"name": "MG-DEAVDANS-ADAPT6-(SSSG)3-ABD035-GSSC-DOTA-177Lu (designed binder)", "chain": "B2 chain", "modifications": "C-terminal cysteine coupled to maleimide-DOTA chelating 177Lu", "notes": "also called Inventive 1"}, "B6": {"name": "MG-DEAVDANS-ADAPT6-(SSSG)3-ABD035-GSSC-HPEM-125I (designed binder)", "chain": "B2 chain", "modifications": "C-terminal cysteine coupled to 125I-labelled ((4-hydroxyphenyl)ethyl)maleimide (HPEM)", "notes": "also called Inventive 2"}, "B7": {"name": "MG-DEAVDANS-ADAPT6-GSSC-HPEM-125I (designed binder)", "chain": "MGDEAVDANSLAAAKETALYHLDRLGVADAYKDLIDKAKTVEGVKARYFEILHALPGSSC", "modifications": "C-terminal cysteine coupled to 125I-labelled ((4-hydroxyphenyl)ethyl)maleimide (HPEM)", "notes": "Radioiodinated form of the non-fused control"}, "B8": {"name": "MG-DEAVDANS-ABD035-(SSSG)3-ADAPT6-GSSC-HPEM-125I (designed binder)", "chain": "B4 chain", "modifications": "C-terminal cysteine coupled to 125I-labelled ((4-hydroxyphenyl)ethyl)maleimide (HPEM)"}, "B9": {"name": "MG-DEAVDANS-ABD035-(SSSG)3-ADAPT6-GSSC-DOTA-177Lu (designed binder)", "chain": "B4 chain", "modifications": "C-terminal cysteine coupled to maleimide-DOTA chelating 177Lu"}, "B10": {"name": "MG-DEAVDANS-ADAPT6-GSSC-DOTA-177Lu (designed binder)", "chain": "MGDEAVDANSLAAAKETALYHLDRLGVADAYKDLIDKAKTVEGVKARYFEILHALPGSSC([maleimide-DOTA])", "modifications": "also: 177Lu chelated by DOTA"}, "B11": {"name": "MG-DEAVDANS-ADAPT6-GSSC (designed binder)", "chain": "B7 chain", "notes": "also called non-fused ADAPT6; unfused control"}, "B12": {"name": "MGDEAVDANS-ADAPTNeg-(SSSG)3-ABD035-GSSC (designed binder)", "chain": "MGDEAVDANSLAEAKVLANRELDKYGVADAYKNLINNAKTVEGVKARIDEILAALPSSSGSSSGSSSGLAEAKVLANRELDKYGVSDFYKRLINKAKTVEGVEALKLHILAALPGSSC"}}, "note": "Groups on a side chain read outwards from the residue. No end group written: not given here. *: point of attachment. DOTA = O=C(O)CN1CCN(CC(=O)O)CCN(CC(=O)*)CCN(CC(=O)O)CC1", "data": [{"molecular_target": "T1, Human Serum Albumin (HSA) (human, UniProt P02768 25-609)", "T1 sequence (P02768 25-609 limits assumed)": "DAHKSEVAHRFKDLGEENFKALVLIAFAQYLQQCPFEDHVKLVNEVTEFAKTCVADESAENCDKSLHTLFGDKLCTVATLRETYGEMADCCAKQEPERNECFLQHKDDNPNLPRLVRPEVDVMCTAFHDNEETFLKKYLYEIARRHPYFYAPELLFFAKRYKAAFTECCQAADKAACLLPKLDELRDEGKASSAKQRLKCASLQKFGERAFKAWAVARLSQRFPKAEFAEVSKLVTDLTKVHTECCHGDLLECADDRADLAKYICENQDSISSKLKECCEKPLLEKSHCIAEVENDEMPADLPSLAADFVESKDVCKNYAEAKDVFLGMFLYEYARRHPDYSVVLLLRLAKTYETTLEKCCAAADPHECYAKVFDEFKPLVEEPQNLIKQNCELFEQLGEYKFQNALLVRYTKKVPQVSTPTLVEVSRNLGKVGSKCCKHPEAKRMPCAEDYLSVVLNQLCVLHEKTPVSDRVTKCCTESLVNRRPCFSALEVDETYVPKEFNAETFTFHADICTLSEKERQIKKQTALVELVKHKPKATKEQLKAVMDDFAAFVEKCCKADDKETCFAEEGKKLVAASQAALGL", "assay": "SPR (Biacore T200), HSA immobilised on CM5 chip", "protocol": "(§1) Target binding analysis was performed on a Biacore T200 system (GE Healthcare, Stockholm, Sweden) by injecting analytes over a CM5 chip immobilized with Murine Serum Albumin (MSA), Human Serum Albumin (HSA) and Human Epidermal growth factor receptor 2 (HER2) to a response level of […] each. Experimental parameters have been described previously (Garousi 2019).", "units": {"Kd": "nM"}, "values": [{"binder": "B1", "Kd": 0.0538}, {"binder": "B2", "Kd": 0.0498}, {"binder": "B3", "Kd": 0.052}, {"binder": "B4", "Kd": 0.0521}]}, {"molecular_target": "T2, HER2 on living HER2-expressing cells (SKOV-3, BT-474) (human, UniProt P04626 23-1255)", "T2 construct": "whole, on cells; also called HER2 receptors in cells; HER2 on living cells", "assay": "LigandTracer, living SKOV-3 cells; KD1 (stronger of two interactions)", "protocol": "(§2) Cell-lines were purchased from American Type Culture Collection (ATCC, Manassas, Va.). […] The affinity of radiolabeled conjugates binding to living HER2-expressing SKOV-3 cells was determined using LigandTracer (Ridgeview Instruments AB) by an established method as described previously (Tolmachev 2014).", "units": {"Kd": "nM"}, "values": [{"binder": "B5", "Kd": 0.485}, {"binder": "B6", "Kd": 0.6}, {"binder": "B7", "Kd": 0.41}, {"binder": "B8", "Kd": 0.15}, {"binder": "B9", "Kd": 0.432}, {"binder": "B10", "Kd": 0.337}]}, {"molecular_target": "T3, Human Epidermal growth factor receptor 2 (HER2), immobilised on a CM5 chip (human, UniProt P04626 23-652, limits assumed)", "assay": "SPR, HER2 immobilised on CM5 chip, analyte 3.125-50 nM with 10x excess HSA", "protocol": "(§3) In the graphs of FIG. 4, the X axis represents time [s] and the Y axis represents Response Unit [RU].\nas §1", "values": [{"binder": "B11", "binding result": "binds"}]}, {"molecular_target": "T4, Murine Serum Albumin (MSA) (murine, UniProt P07724 25-608)", "assay": "SPR (Biacore T200), MSA immobilised on CM5 chip", "protocol": "as §1", "units": {"Kd": "nM"}, "values": [{"binder": "B1", "Kd": 1.8}, {"binder": "B2", "Kd": 1.76}, {"binder": "B4", "Kd": 1.83}]}, {"molecular_target": "T3, Human Epidermal growth factor receptor …", "assay": "SPR, successive injections without regeneration, on HER2; concentrations not given", "values": [{"binder": "B12", "binding result": "no binding"}]}, {"molecular_target": "T4, Murine Serum Albumin (MSA)", "assay": "SPR, MSA immobilised on CM5 chip, analyte injected at 3.125-50 nM", "protocol": "as §3, §1", "values": [{"binder": "B11", "binding result": "no binding (tested: 50 nM)"}]}, {"molecular_target": "T3, Human Epidermal growth factor receptor …", "assay": "SPR (Biacore T200), HER2 immobilised on CM5 chip", "protocol": "as §1", "units": {"Kd": "nM"}, "values": [{"binder": "B1", "Kd": 4.45}, {"binder": "B2", "Kd": 4.67}, {"binder": "B3", "Kd": 4.32}, {"binder": "B4", "Kd": 5.2}]}, {"molecular_target": "T1, Human Serum Albumin (HSA)", "assay": "SPR, HSA immobilised on CM5 chip, analyte injected at 3.125-50 nM", "protocol": "as §3, §1", "values": [{"binder": "B11", "binding result": "no binding (tested: 50 nM)"}]}, {"molecular_target": "T2, HER2 on living HER2-expressing cells …", "assay": "LigandTracer, living SKOV-3 cells; KD2 (weaker of two interactions)", "protocol": "as §2", "units": {"Kd": "nM"}, "values": [{"binder": "B5", "Kd": 33}, {"binder": "B6", "Kd": 36}, {"binder": "B7", "Kd": 27}, {"binder": "B8", "Kd": 28}, {"binder": "B9", "Kd": 38}, {"binder": "B10", "Kd": 41}]}]}
